The target of assay [1] is RSV G^ecto with GalNAc-restricted O-glycosylation (Human respiratory syncytial virus A, …, UniProt P03423). Kind of assay: cryo-EM structure. The note with it: both partners purified.
For assay [2], the target named is T1, RSV strain A2 (RSV/A2) G glycoprotein ectodomain (RSV G^ecto) (Human respiratory syncytial virus A, …, UniProt P03423).
T1 construct: not shown: 6xHistidine-Tag, C-terminal, kept
In words: BLI. The note with it: both partners purified.

T1 sequence (P03423 whole entry, looked up, the tested form may be a part): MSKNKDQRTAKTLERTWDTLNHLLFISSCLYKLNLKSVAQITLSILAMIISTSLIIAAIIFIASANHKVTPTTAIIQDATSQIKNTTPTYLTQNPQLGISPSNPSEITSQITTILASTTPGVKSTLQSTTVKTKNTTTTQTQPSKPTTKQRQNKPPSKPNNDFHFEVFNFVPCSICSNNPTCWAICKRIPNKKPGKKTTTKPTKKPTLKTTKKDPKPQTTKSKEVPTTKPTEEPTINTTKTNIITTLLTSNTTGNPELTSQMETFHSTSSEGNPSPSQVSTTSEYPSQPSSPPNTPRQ
Chain of RSV G^ecto with GalNAc-restricted O-glycosylation (P03423 whole entry, looked up, the tested form may be a part): as above

B1: Fab 3D3 (papain fragment of mAb 3D3) (Fab, V domains shown)
VH: EEQLVESGGGLVQPGRSLRLSCVGSGLRFEEHAMHWVRQAPGRGLEWVSGISWNSGSVGYADSVKGRFTTSRDNAKDILFLEMNTLRSEDTALYFCAIMVATTKNDFHYYKDVWGKGTTVTVSS
VL: QIVLTQSPATLSLSPGERATLSCRASQSVSNHLAWYQQKPGQAPRLLIYETSNRATGIPPRFSGSGSGTDFTLTISSLEPEDFAVYYCQQRNNWYTFGQGTKLEIK
notes: source: papain digestion of the full length mAb from CHO-S, Fc removed with protein A, purified (Superdex 200 SEC)
Consider B1, for which the binding result in assay [1] was “binds”.

B2: human monoclonal antibody 3D3 (recombinant human IgG1) (antibody, V domains shown)
VH: EEQLVESGGGLVQPGRSLRLSCVGSGLRFEEHAMHWVRQAPGRGLEWVSGISWNSGSVGYADSVKGRFTTSRDNAKDILFLEMNTLRSEDTALYFCAIMVATTKNDFHYYKDVWGKGTTVTVSS
VL: QIVLTQSPATLSLSPGERATLSCRASQSVSNHLAWYQQKPGQAPRLLIYETSNRATGIPPRFSGSGSGTDFTLTISSLEPEDFAVYYCQQRNNWYTFGQGTKLEIK
notes: also called mAb 3D3; TRL3D3; source: CHO-S, electroporated, purified (HiTrap Protein G)
As to B2, the binding result in assay [2] is “binds”.

B3: human monoclonal antibody 2D10 (recombinant human IgG1) (antibody, V domains shown)
VH: QVQLVQSGPEVKKPGASVRLSCKASGYVFTNYGVSWVRQAPGQGLEWMGWSSPYNGNTYYAQKLKARVTMTTDTSTNTAYMELRSLRSDDTAVYYCGRDMLGVVQAVAGPFDSWGQGTLVTVSS
VL: DTPMTQSPSSVSASVGDRVTISCRASQGISNSLAWYQQKLGKAPQLLIYAASSLQSGVPSRFSGSGSGTDFTLTISSLQPEDFATYYCQQTNTFPFTFGPGTKVEVR
notes: also called mAb 2D10; source: CHO-S, electroporated, purified (HiTrap Protein G)
For the molecule B3, the binding result in assay [2] is reported as “binds”.

B4: Fab 2D10 (papain fragment of mAb 2D10) (Fab, V domains shown)
VH: QVQLVQSGPEVKKPGASVRLSCKASGYVFTNYGVSWVRQAPGQGLEWMGWSSPYNGNTYYAQKLKARVTMTTDTSTNTAYMELRSLRSDDTAVYYCGRDMLGVVQAVAGPFDSWGQGTLVTVSS
VL: DTPMTQSPSSVSASVGDRVTISCRASQGISNSLAWYQQKLGKAPQLLIYAASSLQSGVPSRFSGSGSGTDFTLTISSLQPEDFATYYCQQTNTFPFTFGPGTKVEVR
notes: as for B1
Consider B4, for which the binding result in assay [1] is on record as “binds”.

B5: human monoclonal antibody 3G12 (recombinant human IgG1) (antibody, V domains shown)
VH: QLQLQESGPGLVKPSETLSLTCTVSGGSISSSNYYWGWIRQPPGKGLEWIASIHDSGSIYYNPSLRSRVTISVDTSKNQFSLKLSSVTAADTAVYYCARHLVWFGELRNNWFDPWGQGTLVTVAS
VL: EIVMTQSPATLSVSPGERATLSCRASQSVNSNLAWYQHKPGQAPRLLIYGASTRATGIPARFSGSGSGTDFTLTISSLQSEDFAVYYCQQYNNWPLFGPGTKVDLK
notes: also called mAb 3G12; source: CHO-S, electroporated, purified (HiTrap Protein G)
In the case of B5, the binding result in assay [2] was “binds”.

For the origin of these results see paper PMC11906780 (Scientific Reports, 2025).
